The test addresses T1, mouse PD-L1 on the surface of DC 2.4 dendritic cells (mouse, UniProt Q9EP73 19-290).
T1 construct: whole, on cells; also called Programmed Death-Ligand 1
As to the kind of experiment: flow cytometry on DC 2.4 cells, purified Nb detected with fluorophore-conjugated anti-FLAG antibody. Here is the method:
While the majority of anti-PD-L1 and anti-CTLA-4 Nbs are currently produced intracellularly in E. coli, the lengthy processes of lysing bacteria and removing endotoxins may dramatically increase costs and demand a centralized facility for production. […] Of note, in the shake-flask expression system, anti-PD-L1 and anti-CTLA-4 Nbs can be secreted into the supernatant of B. subtilis culture at ˜15 mg per liter of culture. To further confirm that these Nbs remain functional following secretion and purification, the mouse dendritic cell line DC 2.4 was chosen because it is known to constitutively express the immunoinhibitory receptor PD-L1 on the cell surface (FIG. 5, Panel A), and it was also validated the expression of PD-L1 by a commercial antibody specific for mouse PD-L1. […] The stained samples were analyzed by flow cytometry and fluorescence microscopy—results of flow cytometry indicated the specific binding of purified anti-PD-L1 Nbs and no binding for the anti-caffeine Nb control in comparison to the unstained sample (FIG. 5, Panel B). […] To further test whether the purification step could be bypassed by directly using bacterial supernatant, 200 μl of the original B. subtilis supernatant containing the anti-PD-L1 Nb was applied to stain ˜one million DC 2.4 cells for fluorescence microscopy.
A general note: A flow cytometer gives signals particle by particle.

The record followed here is patent US20240094220A1 (NORTHEASTERN UNIVERSITY, published 2024).

T1 sequence (Q9EP73 19-290): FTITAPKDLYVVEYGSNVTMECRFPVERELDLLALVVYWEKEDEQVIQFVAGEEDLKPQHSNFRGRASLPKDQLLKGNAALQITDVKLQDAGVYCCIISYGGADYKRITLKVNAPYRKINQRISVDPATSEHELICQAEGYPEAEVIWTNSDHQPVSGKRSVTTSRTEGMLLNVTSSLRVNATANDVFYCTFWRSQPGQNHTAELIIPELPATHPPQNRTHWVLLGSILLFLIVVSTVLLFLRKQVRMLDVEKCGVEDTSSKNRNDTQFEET

B1: anti-caffeine nanobody secreted from B. subtilis (CBD fusion, with FLAG epitope) (VHH, not shown: large carriers)
VHH: QVQLVESGGGLVQAGGSLRLSCTASGRTGTIYSMAWFRQAPGKEREFLATVGWSSGITYYMDSVKGRFTISRDKGKNTVYLQMDSLKPEDTAVYYCTATRAYSVGYDYWGQGTQVTVSS
notes: Negative control in the PD-L1 staining; also called anti-caffeine Nb; CBD-anti-caffeine Nb
Turning to B1, the binding result is reported as “no binding”.
